In patent publication US20090269320:
Numbering of substitutions follows the chain as printed.

Tests used:
[1] = tested on: T1, recombinant PEDF (recombinant wild-type human pigment epithelium derived factor)
T1 sequence: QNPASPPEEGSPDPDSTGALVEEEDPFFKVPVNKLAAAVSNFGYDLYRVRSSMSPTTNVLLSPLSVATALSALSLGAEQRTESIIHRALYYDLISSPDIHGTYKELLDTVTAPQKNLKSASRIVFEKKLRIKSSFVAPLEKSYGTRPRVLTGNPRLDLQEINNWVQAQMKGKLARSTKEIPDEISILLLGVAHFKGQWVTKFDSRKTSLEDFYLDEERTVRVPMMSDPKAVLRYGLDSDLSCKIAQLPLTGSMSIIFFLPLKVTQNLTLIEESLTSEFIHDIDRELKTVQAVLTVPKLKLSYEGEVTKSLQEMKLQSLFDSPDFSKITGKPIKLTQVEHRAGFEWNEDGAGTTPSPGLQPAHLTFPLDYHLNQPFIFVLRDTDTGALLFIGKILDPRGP

[2] = tested on: T2, PEDF purified from human plasma
T2 sequence: T1 sequence

rPEDF variant S227E = tested on: T3, rPEDF variant S227E
T3 sequence: T1 sequence with S208E

rPEDF variant S227A = tested on: T4, rPEDF variant S227A
T4 sequence: T1 sequence with S208A

rPEDF variant S114A = tested on: T5, rPEDF variant S114A
T5 sequence: T1 sequence with S95A

[3] = tested on: T6, rPEDF double variant S24,114A
T6 sequence: T1 sequence with S5A, S95A

rPEDF variant S24A = tested on: T7, rPEDF variant S24A
T7 sequence: T1 sequence with S5A

[4] = tested on: T8, rPEDF double variant S24,114E
T8 sequence: T1 sequence with S5E, S95E

rPEDF variant S114E = tested on: T9, rPEDF variant S114E
T9 sequence: T1 sequence with S95E

rPEDF variant S24E = tested on: T10, rPEDF variant S24E
T10 sequence: T1 sequence with S5E

catalytic subunit of PKA
in vitro PKA phosphorylation ([γ32P]-ATP, heparin, autoradiography) [1]: Both rPEDF and plPEDF were equally phosphorylated by PKA in the presence of heparin
in vitro PKA phosphorylation ([γ32P]-ATP, heparin, autoradiography) [2]: Both rPEDF and plPEDF were equally phosphorylated by PKA in the presence of heparin
in vitro PKA phosphorylation (autoradiography) (rPEDF variant S227E): Mutation of Ser227 to Ala or to Glu completely abolished PKA phosphorylation
in vitro PKA phosphorylation (autoradiography) (rPEDF variant S227A): Mutation of Ser227 to Ala or to Glu completely abolished PKA phosphorylation

recombinant human CK2 (casein kinase 2)
in vitro CK2 phosphorylation (autoradiography) (rPEDF variant S114A): The S114A variant significantly reduced CK2 phosphorylation
in vitro CK2 phosphorylation ([γ32P]-ATP, autoradiography) [1]: Both rPEDF and plPEDF were phosphorylated by CK2; CK2 phosphorylation of rPEDF was stronger than the phosphorylation of plPEDF
in vitro CK2 phosphorylation ([γ32P]-ATP, autoradiography) [2]: Both rPEDF and plPEDF were phosphorylated by CK2; CK2 phosphorylation of rPEDF was stronger than the phosphorylation of plPEDF
in vitro CK2 phosphorylation (autoradiography) [3]: the double variant S24,114A almost completely abolished this phosphorylation
in vitro CK2 phosphorylation (autoradiography) (rPEDF variant S24A): Mutation of S24A significantly reduced CK2 phosphorylation
in vitro CK2 phosphorylation (autoradiography) [4]: both S114E and S24,114E mutations significantly increased CK2 phosphorylation compared with CK2 phosphorylation of rPEDF
in vitro CK2 phosphorylation (autoradiography) (rPEDF variant S114E): both S114E and S24,114E mutations significantly increased CK2 phosphorylation compared with CK2 phosphorylation of rPEDF
in vitro CK2 phosphorylation (autoradiography) (rPEDF variant S24E): the S24E mutation reduced phosphorylation only to a moderate extent
